The target in the assay is His-tagged MUC1 cytoplasmic domain (His-MUC1-CD) (human). Kind of assay: SPR (BIAcore), His-MUC1-CD immobilized on the sensor chip, peptide injected at 10 µM, 1:1 binding model.

Our source for the Kd values is patent publication US20110251246A1.

Broadly, the Kd is the constant that tells how readily two partners part at equilibrium. A low value points to a tighter complex.

The substance MUC1/CQC peptide gave a dissociation constant Kd of 30 nM. That is a double-digit nanomolar value.
